Experimental data taken from article PMC7587234.
pKd: −log10 of the molar value.

Assays:
Assay in all cases: SPR
FcγRIIIa = FcγRIIIa (UniProt P08637)
[1] = biological target: biotinylated cynomolgus FcRn, p51 subunit with β2-m (cynomolgus monkey) (UniProt Q8SPV9)
[2] = biological target: biotinylated human neonatal Fc receptor (hFcRn), p51 subunit with β2-m (human) (UniProt P55899)
[3] = biological target: cynomolgus monkey neonatal Fc receptor (cyno FcRn), soluble heterodimer (UniProt Q8SPV9+Q8SPW0); conditions: pH 7.4; not stated (pH 7.4)
[4] = biological target: human neonatal Fc receptor (hFcRn), soluble heterodimer (UniProt P55899+P61769); conditions: pH 7.4; not stated (pH 7.4)

Chain of UniProt Q8SPV9 (Q8SPV9 24-297, chain 1 of 2): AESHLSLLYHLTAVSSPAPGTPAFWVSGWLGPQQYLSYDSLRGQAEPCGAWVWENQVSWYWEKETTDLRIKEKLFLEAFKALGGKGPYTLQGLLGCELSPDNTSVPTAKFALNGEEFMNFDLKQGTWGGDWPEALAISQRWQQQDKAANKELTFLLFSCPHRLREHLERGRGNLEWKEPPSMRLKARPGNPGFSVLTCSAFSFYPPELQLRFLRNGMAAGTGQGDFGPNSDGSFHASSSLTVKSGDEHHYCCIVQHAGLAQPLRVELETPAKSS
Chain of UniProt Q8SPV9 (Q8SPW0 21-119, chain 2 of 2, further chain): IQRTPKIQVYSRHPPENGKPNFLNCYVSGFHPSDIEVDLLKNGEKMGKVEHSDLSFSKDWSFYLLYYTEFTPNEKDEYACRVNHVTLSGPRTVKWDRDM
Chain of UniProt P08637 (P08637 17-208): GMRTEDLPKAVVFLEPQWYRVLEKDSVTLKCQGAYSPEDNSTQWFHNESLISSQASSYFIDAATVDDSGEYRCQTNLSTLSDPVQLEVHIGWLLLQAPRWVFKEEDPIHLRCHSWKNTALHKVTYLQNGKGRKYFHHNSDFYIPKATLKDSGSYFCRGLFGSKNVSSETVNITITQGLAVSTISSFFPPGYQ
Chain of UniProt P55899 (P55899 24-297, chain 1 of 2): as the sequence (Q8SPV9 24-297, chain 1 of 2) above, with D39N, Q44E, S99G, G189S, N190S, M217L, T269S counted along it
Chain of UniProt P55899 (P61769 21-119, chain 2 of 2, further chain): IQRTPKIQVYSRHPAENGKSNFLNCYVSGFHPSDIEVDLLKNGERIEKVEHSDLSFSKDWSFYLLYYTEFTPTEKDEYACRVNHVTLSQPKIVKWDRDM

| Substance | pKd (FcγRIIIa) | pKd [1] | Steady State RU, at pH 7.4 [1] | pKd [2] | Steady State RU, at pH 7.4 [2] | Steady State RU [3] | Steady State RU [4] |
| --- | --- | --- | --- | --- | --- | --- | --- |
| mAb1 (bevacizumab) with the DW Fc-backbone mutation (T256D/T307W) (antibody) | 6.48 | 7.00 | 14.8 RU | 6.90 | 18 RU | – | – |
| adalimumab WT Fc (labelled mAb2 in Table 2, mAb3 in Tables 1 and 3) | – | – | – | – | – | 2.5 RU | 2.7 RU |
| mAb1 (bevacizumab) with the LS Fc-backbone mutation (M428L/N434S) (antibody) | 6.51 | 6.68 | 38.3 RU | – | 44 RU | – | – |
| mAb1 (bevacizumab) with the DQ Fc-backbone mutation (T256D/T307Q) (antibody) | 6.44 | 6.96 | 10.9 RU | 7.05 | 14 RU | – | – |
| mAb1 (bevacizumab), wild-type Fc (antibody) | 6.42 | 5.84 | – | 6.30 | – | – | – |
| bevacizumab (mAb1) YD M252Y;T256D | – | – | – | – | – | 22.2 RU | 27 RU |
| bevacizumab (mAb1) LS M428L;N434S | – | – | – | – | – | 38.3 RU | 44 RU |
| adalimumab with the LS Fc-backbone mutation (M428L/N434S) (antibody) | 6.71 | 7.32 | 55.7 RU | 6.30 | 68.4 RU | – | – |
| bevacizumab (mAb1) WT Fc | – | – | – | – | – | 1.3 RU | 1.3 RU |
| adalimumab, wild-type Fc (antibody) | 6.71 | 5.96 | – | 6.19 | – | – | – |
| bevacizumab (mAb1) DQ T256D;T307Q | – | – | – | – | – | 10.9 RU | 14 RU |
| mAb1 (bevacizumab) with the YD Fc-backbone mutation (M252Y/T256D) (antibody) | 6.19 | 6.92 | 22.2 RU | 7.07 | 27 RU | – | – |
| bevacizumab (mAb1) DW T256D;T307W | – | – | – | – | – | 14.8 RU | 18 RU |
| adalimumab LS M428L;N434S | – | – | – | – | – | 55.7 RU | 68.4 RU |
